Source: publication PMC5513931

Molecular target: T1, protease-activated receptor 2 (rat (endogenous in isolated Sprague Dawley rat arteries)) (UniProt Q63645)
T1 sequence: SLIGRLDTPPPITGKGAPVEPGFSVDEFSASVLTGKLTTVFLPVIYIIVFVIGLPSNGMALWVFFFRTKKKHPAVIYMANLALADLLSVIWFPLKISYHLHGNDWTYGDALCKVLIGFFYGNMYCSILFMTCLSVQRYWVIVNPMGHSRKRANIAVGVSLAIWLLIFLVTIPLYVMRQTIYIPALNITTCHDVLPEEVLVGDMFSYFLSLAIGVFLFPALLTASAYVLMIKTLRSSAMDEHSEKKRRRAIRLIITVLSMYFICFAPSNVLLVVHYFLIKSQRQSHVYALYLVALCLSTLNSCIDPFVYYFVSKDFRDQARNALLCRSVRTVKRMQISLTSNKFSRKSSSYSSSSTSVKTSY

Question: SLIGRL [PAR-2 peptide agonist SLIGRL] was tested. Which EC50 of vasodilatation to SLIGRL (10 nM-10 uM), wire myography, MRA pre-constricted with 1 uM phenylephrine, control did it give?
Answer: 7.02 µM

Question: And the EC50 of vasodilatation to SLIGRL (100 nM-100 uM), wire myography, basilar artery pre-constricted with 1 uM 5-HT, control?
Answer: 9.65 µM

Question: And the EC50 of vasodilatation to SLIGRL, wire myography, MRA from heparin-treated rats with 0.1 mM L-NNA, control?
Answer: 86.4 µM

Question: And the EC50 of vasodilatation to SLIGRL, wire myography, MRA from heparin-treated rats with 0.1 mM L-NNA, pre-incubated with 10 uM apixaban?
Answer: 6.45 µM

Question: What about the EC50 of vasodilatation to SLIGRL, wire myography, MRA from heparin-treated rats, control of the same binder?
Answer: 1.04 µM

Question: What about the EC50 of vasodilatation to SLIGRL, wire myography, MRA from heparin-treated rats, pre-incubated with 10 uM apixaban of the same binder?
Answer: 0.71 µM

Question: And the EC50 of vasodilatation to SLIGRL, wire myography, MRA pre-constricted with 1 uM phenylephrine, pre-incubated with 10 uM apixaban?
Answer: 1.83 µM

Question: And the EC50 of vasodilatation to SLIGRL, wire myography, MRA with 0.1 mM L-NNA, control?
Answer: 3.03 µM

Question: What about the EC50 of vasodilatation to SLIGRL, wire myography, MRA with 0.1 mM L-NNA, pre-incubated with 10 uM apixaban of the same binder?
Answer: 2.27 µM

Question: And the EC50 of vasodilatation to SLIGRL, wire myography, basilar artery pre-constricted with 1 uM 5-HT, pre-incubated with 10 uM apixaban?
Answer: 4.41 µM

Question: And the EC50 of vasodilatation to SLIGRL, wire myography, basilar artery with 0.1 mM L-NNA, control?
Answer: 34.1 µM

Question: What about the EC50 of vasodilatation to SLIGRL, wire myography, basilar artery with 0.1 mM L-NNA, pre-incubated with 10 uM apixaban of the same binder?
Answer: 20.3 µM
